Assay results as given in patent publication US20170002081A1 (TRANSGENE S A, published 2017).
Changes are numbered by the printed parent chain.

Columns and labels:
[1] = target: T1, vascular endothelial growth factor receptor (VEGFR)2-Fc-6×his (R&D Systems cat. 357-KD/CF) (human, UniProt P35968 20-764, limits assumed); assay: ELISA, 300 ng coated receptor per well
T1 construct: extracellular domain; Bought; also called soluble VEGFR-2
Procedure: (§1) 13382) was also incubated with wells coated with receptor-human Fc fusion proteins Flt-3-Fc-, PDGFRβ-Fc, VEGFR2-Fc, VEGFR1-Fc, while PDGFRα- and SCFR-coated wells were incubated with respectively anti-PDGF-Rα (mouse IgG1, R&Dsystems cat. MAB322) and anti-SCF-R goat IgG (R&DSystems cat. AF332). […] Following revelation with tetramethylbenzidine (Sigma, cat. T8665) (0.1 mg/ml in 0.05 M sodium acetate, 0.05 M citric acid, H₂O₂ 1/7000), absorbance was measured at 450 nm and corrected by subtraction of absorbance at 540 nm using a spectrophotometer (Berthold, Tristar LB941).

[2] = target: T2, VEGFR1-Fc-6×his (R&D Systems cat. 321-FL-050) (human, UniProt P17948 27-758, limits assumed); assay: ELISA, 300 ng coated receptor per well
T2 construct: extracellular domain; Bought; also called soluble VEGFR-1
Procedure: as §1

[3] = target: T3, human SCFR ECD (R&D Systems cat. 332-SR/CF) (human, UniProt P10721 26-524); assay: ELISA, 300 ng coated receptor per well
T3 construct: extracellular domain; Bought; also called SCFR (c-kit)
Procedure: as §1

[4] = target: T4, Flt-3-Fc-6×his (R&D Systems cat. 368-ST/CF) (human, UniProt P36888 27-543, limits assumed); assay: ELISA, 300 ng coated receptor per well
T4 construct: extracellular domain; Bought; also called soluble Flt-3
Procedure: as §1

[5] = target: T5, PDGFRβ-Fc-6×his (R&D Systems cat. 385-PR/CF) (human, UniProt P09619 33-532, limits assumed); assay: ELISA, 300 ng coated receptor per well
T5 construct: extracellular domain; Bought; also called soluble PDGFRβ
Procedure: as §1

[6] = target: T6, PDGFRα ECD (R&D Systems cat. 322-PR/CF) (UniProt P16234 24-528, limits assumed); assay: ELISA, 300 ng coated receptor per well
T6 construct: extracellular domain; Bought; also called soluble PDGFRα
Procedure: as §1

[7] = target: T7, human CSF-1R, full length, on cells (human, UniProt P07333 20-972); assay: displacement of 1.5 nM ^125I-H27K15 (competitor) on EL4-CSF-1R cells, Cheng-Prusoff
T7 construct: also called cell-surface CSF-1R; B4-800-5 cells

[8] = target: T7, human CSF-1R, full length, on cells; assay: displacement of 1.5 nM ^125I-H27K15 (competitor) on EL4-CSF-1R cells
pTG17983 = target: T8, pTG17983; assay: ELISA: His-tagged construct captured from CHO supernatant on anti-His tag coated wells; biotinylated antibody; streptavidin-HRP
T8 construct: secreted by CHO cells; also called human D1-D2-D3 of CSF-1R, Histidine tag
T8 single secreted chain: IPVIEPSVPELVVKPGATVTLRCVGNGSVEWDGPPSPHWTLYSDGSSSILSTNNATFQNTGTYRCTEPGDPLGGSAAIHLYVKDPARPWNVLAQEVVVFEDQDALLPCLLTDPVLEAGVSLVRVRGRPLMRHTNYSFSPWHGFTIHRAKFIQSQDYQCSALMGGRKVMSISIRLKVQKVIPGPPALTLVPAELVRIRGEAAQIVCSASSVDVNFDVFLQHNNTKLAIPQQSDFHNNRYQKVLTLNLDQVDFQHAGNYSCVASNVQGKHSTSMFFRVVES
Procedure: (§2) In order to map the mAb binding sites on CSF-1R, truncated mutants of human CSF-1R and chimeras between human and murine D1-D3 CSF-1R fused to Histidine tags were constructed (see FIGS. 19 and 20 for details). These constructs were expressed as secreted proteins using CHO cells. Expression of constructs was checked by immunoblot analysis using an anti-His tag antibody for detection. All constructs were captured on ELISA plate by incubating CHO culture supernatant into wells coated with an Anti-His tag antibody. Antibodies were biotinylated using Biotin-NHS (Sigma ref B3295-10 MG). Biotinylated antibodies were added to each well and binding was detected with streptavidin-HRP.

pTG18036 = target: T9, pTG18036; assay: as above
T9 construct: truncated mutant secreted by CHO cells; also called human D1 and D2 of CSF-1R, Histidine tag
T9 single secreted chain: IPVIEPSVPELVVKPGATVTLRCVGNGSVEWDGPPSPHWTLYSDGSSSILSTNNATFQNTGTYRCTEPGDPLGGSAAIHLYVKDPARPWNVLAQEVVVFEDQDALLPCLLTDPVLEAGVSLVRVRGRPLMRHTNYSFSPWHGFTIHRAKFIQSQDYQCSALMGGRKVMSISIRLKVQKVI
Procedure: as §2

[9] = target: T10, construct pTG18000 (human and murine D1 subdomains combined, Histidine tag) (Homo sapiens (Human), UniProt P07333 21-298); assay: as above
T10 chain: T8 single secreted chain with I1A, V8G, K14E, A17E
Procedure: as §2

[10] = target: T11, CSF-1R20-512-Fc (R&D Systems cat. 329-MR) (human, UniProt P07333 20-512); assay: ELISA: coated human CSF1 1-444 or PBS; Fc-D1-D5 human CSF-1R 0.125 µg/mL; anti-human IgG-Fc-HRP
T11 construct: Bought; also called CSF-1R1-512:Fc; soluble human CSF-1R; not shown: Fc region of a human IgG1

EGFR:Fc = target: T12, EGFR:Fc (human, UniProt P00533 25-645); assay: Western blot, native conditions, 100 ng soluble receptor
T12 construct: also called soluble form of the EGFR fused to human IgG1 Fc (R&D Systems); Soluble EGFR; not shown: human IgG1 Fc
From the text: A soluble form of the EGFR fused to human IgG₁ Fc (R&D Systems) was used as a negative control.

T2 sequence (P17948 27-758 limits assumed): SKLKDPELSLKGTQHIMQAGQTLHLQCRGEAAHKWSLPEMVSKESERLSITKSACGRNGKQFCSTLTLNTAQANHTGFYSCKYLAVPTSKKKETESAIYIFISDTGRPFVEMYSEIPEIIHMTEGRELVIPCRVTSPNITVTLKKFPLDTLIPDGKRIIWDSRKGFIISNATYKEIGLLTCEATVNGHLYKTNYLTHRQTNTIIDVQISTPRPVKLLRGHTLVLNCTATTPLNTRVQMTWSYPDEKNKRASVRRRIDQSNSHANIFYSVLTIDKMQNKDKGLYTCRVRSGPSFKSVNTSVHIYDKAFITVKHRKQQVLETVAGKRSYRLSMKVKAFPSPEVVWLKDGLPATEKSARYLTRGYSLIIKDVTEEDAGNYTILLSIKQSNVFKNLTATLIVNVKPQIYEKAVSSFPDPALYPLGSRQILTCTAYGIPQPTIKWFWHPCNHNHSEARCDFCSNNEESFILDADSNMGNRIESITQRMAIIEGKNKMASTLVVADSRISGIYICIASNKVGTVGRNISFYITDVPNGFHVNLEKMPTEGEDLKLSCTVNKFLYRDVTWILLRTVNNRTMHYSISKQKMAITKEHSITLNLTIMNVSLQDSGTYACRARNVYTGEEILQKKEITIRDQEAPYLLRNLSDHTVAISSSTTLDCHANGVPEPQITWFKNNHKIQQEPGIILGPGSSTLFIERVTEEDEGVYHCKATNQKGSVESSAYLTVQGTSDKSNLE
T5 sequence (P09619 33-532 limits assumed): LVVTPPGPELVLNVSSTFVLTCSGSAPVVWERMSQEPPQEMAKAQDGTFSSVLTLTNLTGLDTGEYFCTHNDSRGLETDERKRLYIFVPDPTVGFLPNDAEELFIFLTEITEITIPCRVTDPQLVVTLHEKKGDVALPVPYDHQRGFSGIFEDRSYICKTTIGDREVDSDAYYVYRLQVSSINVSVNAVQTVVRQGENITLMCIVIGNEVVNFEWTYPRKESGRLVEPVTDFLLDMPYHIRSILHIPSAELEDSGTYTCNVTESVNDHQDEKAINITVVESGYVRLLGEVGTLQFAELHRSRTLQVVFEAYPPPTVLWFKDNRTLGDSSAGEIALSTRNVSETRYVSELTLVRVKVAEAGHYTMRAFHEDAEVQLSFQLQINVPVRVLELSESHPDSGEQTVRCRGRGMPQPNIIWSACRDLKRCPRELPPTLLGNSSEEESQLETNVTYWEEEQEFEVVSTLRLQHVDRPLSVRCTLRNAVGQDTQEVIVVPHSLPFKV
T1 sequence (P35968 20-764 limits assumed): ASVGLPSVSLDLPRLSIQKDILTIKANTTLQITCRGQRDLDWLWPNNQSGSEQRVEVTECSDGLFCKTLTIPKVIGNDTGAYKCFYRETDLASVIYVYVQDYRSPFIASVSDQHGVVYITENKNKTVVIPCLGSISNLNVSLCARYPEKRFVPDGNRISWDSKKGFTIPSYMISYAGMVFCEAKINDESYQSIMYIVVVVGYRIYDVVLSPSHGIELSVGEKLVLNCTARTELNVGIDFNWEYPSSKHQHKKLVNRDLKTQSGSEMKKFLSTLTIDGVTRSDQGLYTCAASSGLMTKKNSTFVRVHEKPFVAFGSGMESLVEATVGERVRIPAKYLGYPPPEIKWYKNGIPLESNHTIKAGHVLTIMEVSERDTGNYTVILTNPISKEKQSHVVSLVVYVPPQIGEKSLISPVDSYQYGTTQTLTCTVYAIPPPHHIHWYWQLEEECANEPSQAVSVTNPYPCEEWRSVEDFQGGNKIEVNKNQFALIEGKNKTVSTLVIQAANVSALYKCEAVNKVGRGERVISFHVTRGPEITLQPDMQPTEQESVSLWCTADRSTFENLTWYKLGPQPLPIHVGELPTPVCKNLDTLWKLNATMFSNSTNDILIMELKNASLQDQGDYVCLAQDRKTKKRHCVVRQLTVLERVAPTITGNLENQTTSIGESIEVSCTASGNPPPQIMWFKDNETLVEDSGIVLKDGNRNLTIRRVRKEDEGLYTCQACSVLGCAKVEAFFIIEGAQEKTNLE
T6 sequence (P16234 24-528 limits assumed): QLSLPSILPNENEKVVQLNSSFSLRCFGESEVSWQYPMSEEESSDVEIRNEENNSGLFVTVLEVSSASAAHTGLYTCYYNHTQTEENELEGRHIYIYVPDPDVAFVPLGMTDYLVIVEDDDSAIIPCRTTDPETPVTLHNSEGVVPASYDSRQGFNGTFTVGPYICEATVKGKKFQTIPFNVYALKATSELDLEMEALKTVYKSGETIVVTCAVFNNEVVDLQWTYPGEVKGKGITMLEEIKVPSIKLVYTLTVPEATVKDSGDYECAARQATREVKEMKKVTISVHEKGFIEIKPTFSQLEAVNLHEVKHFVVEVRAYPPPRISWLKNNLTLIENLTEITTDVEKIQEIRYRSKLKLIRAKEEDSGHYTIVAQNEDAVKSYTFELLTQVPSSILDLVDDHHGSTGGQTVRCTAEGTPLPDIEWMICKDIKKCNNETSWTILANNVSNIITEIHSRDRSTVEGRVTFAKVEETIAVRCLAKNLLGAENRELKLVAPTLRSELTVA

B1: H19K12 (antibody, V domains shown)
VH: EVQLVESGGGLVQPGGSLKLSCAASGFTFSDAWMDWVRQSPEMGLEWVAEIRSKANNHATFYAESVKGRFTISRDDSKSSVYLQMNSLRAEDTGIYYCTRVKVGFDNWGQGTTLTVSS
VL: DIQMTQSPSSLSASVGDRVTITCRASENIYSNLAWYQQKDGKSPQLLVHAATNLADGVPSRFSGSGSGTQYSLTISSLQPEDFGSYYCQHFWGTPRTFGGGTKLEIKR
notes: Humanized human IgG1/kappa; also called hCXIIG6 variant H19K12
B1: no binding (tested: 500 ng/ml) [1]; no binding (tested: 500 ng/ml) [2]; no binding (tested: 500 ng/ml) [3]. B1: no binding (tested: 500 ng/ml) [4]; no binding (tested: 500 ng/ml) [5]; no binding (tested: 500 ng/ml) [6]. The Ki [7] was 0.754 nM and the IC50 [8] was 1.28 nM.

B2: Chimeric CXIIG6 IgG1 (antibody)
heavy: not shown
light: DIQMTQSPASLSVSVGETVTITCRASENIYSNLAWYQQKQGKSPQLLVHAATNLADGVPSRFSGSGSGTQYSLKINSLQSEDFGSYYCQHFWGTPRTFGGGTKLEIKRTVAAPSVFIFPPSDEQLKSGTASVVCLLNNFYPREAKVQWKVDNALQSGNSQESVTEQDSKDSTYSLSSTLTLSKADYEKHKVYACEVTHQGLSSPVTKSFNRGEC
For B2, the Ki [7] was 0.874 nM, the binding result (pTG17983) was “binds” and the binding result (pTG18036) was “binds”. For the same binder, the binding result [9] was “no binding” and the IC50 [8] was 1.48 nM.

B3: human CSF1 1-444 (Geneart) (ligand)
chain: EEVSEYCSHMIGSGHLQSLQRLIDSQMETSCQITFEFVDQEQLKDPVCYLKKAFLLVQDIMEDTMRFRDNTPNAIAIVQLQELSLRLKSCFTKDYEEHDKACVRTFYETPLQLLEKVKNVFNETKNLLDKDWNIFSKNCNNSFAECSSQDVVTKPDCNCLYPKAIPSSDPASVSPHQPLAPSMAPVAGLTWEDSEGTEGSSLLPGEQPLHTVDPGSAKQAPPRSTCQSFEPPETPVVKDSTIGGSPQPRPSVGAFNPGMEDILDSAMGTNWVPEEASGEASEIPVPQGTELSPSRPGGGSMQTEPARPSNFLSASSPLPASAKGQQPADVTGTALPRVGPVRPTGQDWNHTPQKTDHPSALLRDPPEPGSPRISSLRPQGLSNPSTLSAQPQLSRSHSSGSVLPLGELEGRR
modifications: biotinylated with Biotin-NHS in the assay of
notes: also called biotinylated CSF-1
B3: binds [10].

B4: mAb CXIIG6 (antibody, mouse IgG2a, kappa)
heavy: EVKLEESGGGLVQPGGSMKLSCAASGFTFSDAWMDWVRQSPEMGLEWVAEIRSKANNHATFYAESVKGRFTISRDDSKSSVYLQMNSLRPEDTGIYYCTRVKVGFDNWGQGTTLTVSSAKTTAPSVYPLAPVCGDTTGSSVTLGCLVKGYFPEPVTLTWNSGSLSSGVHTFPAVLQSDLYTLSSSVTVTSSTWPSQSITCNVAHPASSTKVDKKIEPRGPTIKPCPPCKCPAPNLLGGPSVFIFPPKIKDVLMISLSPIVTCVVVDVSEDDPDVQISWFVNNVEVHTAQTQTHREDYNSTLRVVSALPIQHQDWMSGKEFKCKVNNKDLPAPIERTISKPKGSVRAPQVYVLPPPEEEMTKKQVTLTCMVTDFMPEDIYVEWTNNGKTELNYKNTEPVLDSDGSYFMYSKLRVEKKNWVERNSYSCSVVHEGLHNHHTTKSFSRTPGK
light: DIQMTQSPASLSVSVGETVTITCRASENIYSNLAWYQQKQGKSPQLLVHAATNLADGVPSRFSGSGSGTQYSLKINSLQSEDFGSYYCQHFWGTPRTFGGGTKLEIKRADAAPTVSIFPPSSEQLTSGGASVVCFLNNFYPKDINVKWKIDGSERQNGVLNSWTDQDSKDSTYSMSSTLTLTKDEYERHNSYTCEATHKTSTSPIVKSFNRNEC
notes: Mouse IgG2a; Used as hybridoma supernatant or as purified recombinant antibody; also called CXIIG6 hybridoma supernatant; CXIIG6 SN
B4: no binding (EGFR:Fc).
